Test results taken from patent US20070009964A1 (MERCK SERONO, published 2007).

Assays:
[1] = target: T1, Human OX40R-IgG1 fusion protein (human, UniProt P43489 29-208); test: Alphascreen binding assay, increasing OX40L-CD8 with 5 nM OX40R-IgG1; 5 nM OX40-IgG1
T1 construct: range 1-208; Purified on protein G; also called OX40-IgG1; OX40-IgG; not shown: constant region of human IgG1 (hinge region, CH2 and CH3), amino acids 98-330 of SWISSPROT Acc; No. P01857
T1 sequence (looked up): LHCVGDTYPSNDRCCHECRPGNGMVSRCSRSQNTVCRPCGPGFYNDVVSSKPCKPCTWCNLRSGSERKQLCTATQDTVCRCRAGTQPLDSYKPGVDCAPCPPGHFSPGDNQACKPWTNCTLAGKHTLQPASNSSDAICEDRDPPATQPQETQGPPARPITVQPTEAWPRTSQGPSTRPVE

[2] = target: T1, Human OX40R-IgG1 fusion protein; test: Alphascreen binding assay, increasing OX40L-CD8 with 10 nM OX40R-IgG1; 10 nM OX40-IgG1
[3] = target: T1, Human OX40R-IgG1 fusion protein; test: Alphascreen saturation binding, 10 nM OX40R-IgG1, non-specific binding determined with 1 mM suramin
[4] = target: T1, Human OX40R-IgG1 fusion protein; test: Alphascreen competition against OX40L-CD8, IC50 transformed by the Cheng-Prusoff equation
Procedure: (§1) In the standard assay, OX40-IgG₁ and OX40L-CD8 were incubated together for 30 minutes, and then biotinylated anti-CD8 antibody (10 nM) was added. Following another incubation period of 30 minutes, streptavidin donor beads (20 μg/ml) and Protein A acceptor beads (20 μg/ml) were added to each individual well. The plate was counted 1 hour later using a Packard Fusion™ reader (Biosignal Packard) set at a read time of 1 second/well. Owing to the light sensitivity of the donor and acceptor beads, the experiments were carried out under […] and all incubation periods were performed at room temperature. The plate was read at an excitation wavelength of 680 nanometers combined with a shorter emission wavelength of 520-620 nanometers.
(§2) The ability of two known competitors of OX40L-OX40R interactions (untagged recombinant human soluble OX40L and suramin), which are themselves unable to generate an Alphascreen™ signal in this assay in absence of OX40L-CD8, to displace OX40L-CD8 from OX40R-IgG₁ was investigated. […] Increasing concentrations of OX40L (3 μM-0.1 pM) or suramin (1 mM -1 nM) were added to a reaction mixture also containing OX40-IgG₁ (10 nM) and OX40L-CD8 (40 nM). […] These values can be transformed by the Cheng-Prusoff equation (Cheng, Y C and Prusoff, W H, 1973) to Kᵢ values of 2.0 nM for OX40L and 26.3 μM for suramin. […]

[5] = target: T1, Human OX40R-IgG1 fusion protein; test: Alphascreen competition, soluble OX40L displacing OX40L-CD8 (40 nM) from OX40R-IgG1 (10 nM)
Procedure: as §1, §2

[6] = target: T1, Human OX40R-IgG1 fusion protein; test: fluorescence quenching spectroscopy of OX40R-IgG1 in solution
Procedure: (§3) The fluorescence quenching assay was performed as previously described (Golabek A et al., 2000). OX40R-IgG₁ (35 micrograms) was dissolved in 500 microliters of PBS and the fluorescence spectum was recorded at 295-420 nanometers with an excitation wavelength of 290 nanometers using a spectrofluorimeter (Perkin Elmer LS50B) with the slits set at 5 nanometers. Fluorescence spectra of human OX40R-IgG₁ were then recorded in the presence of increasing concentrations (5-1000 nM) of P5 and P5-1 peptides after 15 minutes of equilibration. The fluorescence change at 336 nanometers was plotted versus peptide concentration and the resulting curves were analyzed by nonlinear regression fit with Prism® software (GraphPad).
(§4) The affinity of the peptides identified in Example 1 as inhibitor of OX40L-OX40R interaction was evaluated by fluorescence quenching spectroscopy, a technology allowing such measurements in solution, under native conditions and without beads or other supports. This method is based on monitoring the changes in the intrinsic fluorescence of a protein (OX40R-IgG₁) upon its binding with another protein (P5 or P5-1). […]

[7] = target: T1, Human OX40R-IgG1 fusion protein; test: Alphascreen-based competition assay against OX40L-CD8 on OX40R-IgG1; P5 (amino acids 94-124)
Procedure: (§5) The soluble components (OX40-IgG₁, OX40L-CD8 and biotinylated anti-CD8 antibody) were mixed at the concentration described before for the competition assays with OX40L and suramin (FIG. 4), together with various concentrations of each peptide in a 5 microliter volume into a first addition step. The streptavidin donor and Protein A acceptor beads were added 30 minutes later. The plates were incubated for 2 hours in the dark, at room temperature and with shaking, before reading at a long excitation wavelength of 680 nm combined with a shorter emission wavelength of 520-620 nanometers, as described in Example 1.

[8] = target: T1, Human OX40R-IgG1 fusion protein; test: fluorescence quenching spectroscopy of OX40R-IgG1 intrinsic fluorescence, non-linear regression
Procedure: as §3, §4

[9] = target: T1, Human OX40R-IgG1 fusion protein; test: Alphascreen-based competition assay against OX40L-CD8 on OX40R-IgG1; P5-1 (amino acids 107-116)
Procedure: as §5

## Human OX40L-murine CD8 (from UniProt P01731 28-196) (ligand)
[1]
  EC50: 7.7 nM
[2]
  EC50: 7.9 nM
[3]
  Kd: 20.7 nM

B1: Recombinant human soluble OX40L (ligand)
chain: QVSHRYPRIQSIKVQFTEYKKEKGFILTSQKEDEIMKVQNNSVIINCDGFYLISLKGYFSQEVNISLHYQKDEEPLFQLKKVRSVNSLMVASLTYKDKVYLNVTTDNTSLDDFHVNGGELILIHQNPGEFCVL
notes: also called untagged recombinant human soluble OX40L; not shown: Glutathione-S-Transferase (GST) fusion partner
[4]
  Ki: 2 nM
[5]
  IC50: 5.9 nM

B2: Peptide P5 (amino acids 94-124 of human OX40L) (peptide)
peptide: IINCDGFYLISLKGYFSQEVNISLHYQKDEE
notes: Synthetic peptide (Epytop), purity 85-97%
[6]
  Kd: ~7.9 nM
[7]
  Kd: ~10000 nM
[8]
  Kd: 7.96 nM

## GYFSQEVNIS (Synthetic peptide (Epytop)) [Peptide P5-1 (amino acids 107-116 of human OX40L)]
[6]
  Kd: ~24.6 nM
[9]
  Kd: ~62000 nM
[8]
  Kd: 24.6 nM
